From publication doi:10.1101/2020.02.10.941963
Where two headings read alike, the source gives them in different places.

Key:
[1] = biological target: Rv1019, putative TetR family transcriptional regulator of Mycobacterium tuberculosis H37Rv (Mycobacterium tuberculosis H37Rv); assay: cross-linking
[2] = biological target: Rv1019, putative TetR family transcriptional regulator of Mycobacterium tuberculosis H37Rv (Mycobacterium tuberculosis H37Rv); assay: native gel or EMSA
[3] = biological target: T1, Rv1019 (TetR family regulator) (Mycobacterium tuberculosis H37Rv) (UniProt P96381); assay: EMSA
T1 sequence: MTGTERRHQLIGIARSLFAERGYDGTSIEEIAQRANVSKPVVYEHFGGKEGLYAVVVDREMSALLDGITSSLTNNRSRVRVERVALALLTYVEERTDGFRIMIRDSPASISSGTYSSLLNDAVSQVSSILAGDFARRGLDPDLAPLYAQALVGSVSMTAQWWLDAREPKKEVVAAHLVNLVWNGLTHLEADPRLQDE

[4] = biological target: T2, Rv1019 (TetR family regulator) (Mycobacterium tuberculosis H37Rv, UniProt P96381 1-197); assay: EMSA
T2 sequence: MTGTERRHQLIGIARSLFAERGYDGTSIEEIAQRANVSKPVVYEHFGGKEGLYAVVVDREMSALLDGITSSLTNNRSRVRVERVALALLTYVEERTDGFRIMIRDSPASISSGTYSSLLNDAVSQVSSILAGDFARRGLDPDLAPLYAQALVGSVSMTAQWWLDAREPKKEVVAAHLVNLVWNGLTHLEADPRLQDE

[5] = biological target: T2, Rv1019 (TetR family regulator); assay: EMSA; remark: listed apart in the source

Rv1019, putative TetR family transcriptional regulator of Mycobacterium tuberculosis H37Rv (natural protein)
stoichiometry N [1]: 2
stoichiometry N [2]: 2

CCTGGCGCGCGTCACCCGCGTCGGGTTTTCCGGCGCCTTATCCGGCCCTTTATCCGGTCCGGCCACATCAACAAGGGTATCGGTTTGCGTGGGGCCGGTGGGTAGACGGCGACAGCGTTGACTGTGCTGACGGCGTTGACACCGTCTAAAGTCACATCGATGTGCAATCCGTCGTGGTGTAATCGGCAGCACCTCTGATTTTGGTTCAGATAGTTCAGGTTCGAGTCCTGGCGACGGAGCTTCAAGGAGGGTTGATGACGTTTCCTGGTGACACCGCGGTCCTGGTCCTAGCGGCCGGGC (double strand) [Fragment I, Rv1019 upstream -300 to -1]
binding [3]: binds

B1: M. smegmatis cognate site (MS Pal S1/S2) (dsDNA)
DNA 1: GGCTTGACGTGCGCGAACCGTCGAAAG
DNA 2: CTTTCGACGGTTCGCGCACGTCAAGCC
binding result [4]: binds

B2: Rv1019 18 bp inverted repeat (Palindrome Oligo S1/S2) (dsDNA)
DNA 1: TGACTTTAGACGGTGTCAACGCCGTCAGCACAGT
DNA 2: ACTGTGCTGACGGCGTTGACACCGTCTAAAGTCA
binding result [5]: binds
